Patent US20250346685A1 (published 2025)

T1: human CD3εγ-Fc heterodimer (human)
T1 construct: also called human CD3εγ recombinant protein; human CD3εγ protein
T1 chain 1: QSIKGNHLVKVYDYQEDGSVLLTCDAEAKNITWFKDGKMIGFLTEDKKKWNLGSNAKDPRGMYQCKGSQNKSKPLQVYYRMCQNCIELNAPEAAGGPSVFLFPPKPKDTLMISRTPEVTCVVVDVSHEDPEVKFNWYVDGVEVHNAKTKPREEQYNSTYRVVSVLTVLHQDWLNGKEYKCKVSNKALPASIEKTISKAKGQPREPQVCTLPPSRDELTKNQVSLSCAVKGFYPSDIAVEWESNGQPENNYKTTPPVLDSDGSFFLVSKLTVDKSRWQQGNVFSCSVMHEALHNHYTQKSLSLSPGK
T1 chain 2: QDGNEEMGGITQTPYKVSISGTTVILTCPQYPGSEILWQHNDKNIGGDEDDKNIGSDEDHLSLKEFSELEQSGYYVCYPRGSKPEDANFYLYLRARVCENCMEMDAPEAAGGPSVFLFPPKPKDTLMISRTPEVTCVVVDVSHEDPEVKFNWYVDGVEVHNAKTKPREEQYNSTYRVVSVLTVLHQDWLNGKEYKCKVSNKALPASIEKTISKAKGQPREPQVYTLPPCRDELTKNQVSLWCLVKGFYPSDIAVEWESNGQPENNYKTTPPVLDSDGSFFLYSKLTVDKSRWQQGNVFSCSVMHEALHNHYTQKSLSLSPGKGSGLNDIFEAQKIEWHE

T2: cynomolgus monkey CD20 on CHO stably transfected cells (cynomolgus monkey, UniProt M4ZHZ6 1-297)
T2 construct: whole, on cells; also called Cynomolgus monkey CD20-CHO; CHO-cynomolgus monkey CD20
T2 sequence: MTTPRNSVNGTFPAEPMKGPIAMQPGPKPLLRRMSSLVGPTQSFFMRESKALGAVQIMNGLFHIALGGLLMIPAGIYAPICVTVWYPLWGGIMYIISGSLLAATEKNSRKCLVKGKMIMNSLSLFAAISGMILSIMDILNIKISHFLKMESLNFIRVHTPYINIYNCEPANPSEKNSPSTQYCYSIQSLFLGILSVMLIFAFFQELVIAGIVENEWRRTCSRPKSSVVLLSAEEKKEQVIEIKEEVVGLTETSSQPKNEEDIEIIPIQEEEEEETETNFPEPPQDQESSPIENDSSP

T3: human CD20 on cells (CHO-human CD20 stably transfected cells; SU-DHL-4, Raji, NALM-6 tumor cells) (human, UniProt P11836 1-297)
T3 construct: whole, on cells; also called Human CD20-CHO; cellular CD20 receptor
T3 sequence (looked up): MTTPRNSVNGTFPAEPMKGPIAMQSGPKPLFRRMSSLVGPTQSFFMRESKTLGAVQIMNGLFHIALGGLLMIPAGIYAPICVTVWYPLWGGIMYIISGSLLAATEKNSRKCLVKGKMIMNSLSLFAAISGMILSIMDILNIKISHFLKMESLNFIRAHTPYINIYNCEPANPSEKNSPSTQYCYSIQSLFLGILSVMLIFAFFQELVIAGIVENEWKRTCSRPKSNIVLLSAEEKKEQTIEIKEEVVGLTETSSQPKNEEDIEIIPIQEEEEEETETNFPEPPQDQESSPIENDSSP

B1: BCMA × CD3 κλ004 (bispecific antibody, human IgG4 S228P, kappa, lambda)
light 1: DIVLTQSPASLAVSPGQRATITCRASKSVTTSGYSYIHWYQKKPGQPPKLLIYLASDLEAGVPARFSGSGSGTDFTLTINPVEAEDTANYYCQHSRELPWTFGQGTKVEIKRTVAAPSVFIFPPSDEQLKSGTASVVCLLNNFYPREAKVQWKVDNALQSGNSQESVTEQDSKDSTYSLSSTLTLSKADYEKHKVYACEVTHQGLSSPVTKSFNRGEC
heavy 1: QVQLVQSGSELKKPGASVKVSCKASGYIFTNFGMNWVREAPGQGLEWMGWINTYTGEQIYADGFTGRFVFSLDTSASTAYLQISSLKAEDTAVYFCARGEIYYGYDVGFVYWGQGTLVTVSSASTKGPSVFPLAPCSRSTSESTAALGCLVKDYFPEPVTVSWNSGALTSGVHTFPAVLQSSGLYSLSSVVTVPSSSLGTKTYTCNVDHKPSNTKVDKRVESKYGPPCPPCPAPEFEGGPSVFLFPPKPKDTLMISRTPEVTCVVVDVSQEDPEVQFNWYVDGVEVHNAKTKPREEQFNSTYRVVSVLTVLHQDWLNGKEYKCKVSNKGLASSIEKTISKAKGQPREPQVCTLPPSQEEMTKNQVSLSCAVKGFYPSDIAVEWESNGQPENNYKTTPPVLDSDGSFFLVSKLTVDKSRWQEGNVFSCSVMHEALHNHYTQKSLSLSLGK
light 2: QAVVTQEPSLTVSPGGTVTLTCRSSTGAVTTSNYANWVQEKPGQAPRGLIGGTNKRAPWTPARFSGSLLGGKAALTITGAQAEDEAEYYCVLWYSNLWVFGGGTKLTVLGQPKAAPSVTLFPPSSEELQANKATLVCLISDFYPGAVTVAWKADSSPVKAGVETTTPSKQSNNKYAASSYLSLTPEQWKSHRSYSCQVTHEGSTVEKTVAPTECS
heavy 2: EVQLVESGGGLVQPGGSLRLSCAASGFTFNTYAMNWVRKAPGKGLEWVGRIRSKYNNYATYYADSVKDRFTISRDDSKNSLYLQMNSLKTEDTAVYYCVRHGNFGNSYVSWFAYWGQGTLVTVSSASTKGPSVFPLAPCSRSTSESTAALGCLVKDYFPEPVTVSWNSGALTSGVHTFPAVLQSSGLYSLSSVVTVPSSSLGTKTYTCNVDHKPSNTKVDKRVESKYGPPCPPCPAPEFEGGPSVFLFPPKPKDTLMISRTPEVTCVVVDVSQEDPEVQFNWYVDGVEVHNAKTKPREEQFNSTYRVVSVLTVLHQDWLNGKEYKCKVSNKGLASSIEKTISKAKGQPREPQVYTLPPCQEEMTKNQVSLWCLVKGFYPSDIAVEWESNGQPENNYKTTPPVLDSDGSFFLYSKLTVDKSRWQEGNVFSCSVMHEALHNHYTQKSLSLSLGK
notes: also called BCMA×CD3 κλ bispecific antibody
B2: CD20 × CD3 κλ001 (bispecific antibody, human IgG4 S228P, kappa, lambda)
light 1: not shown
heavy 1: EVQLLESGGGVVQPGGSLRLSCAASGFTFNDYAMHWVRQAPGKGLEWVSTISWNSGSIGYADSVKGRFTISRDNSKNTLYLQMNSLRAEDTAVYYCAKDIQYGNYYYGMDYWGQGTLVTVSSASTKGPSVFPLAPCSRSTSESTAALGCLVKDYFPEPVTVSWNSGALTSGVHTFPAVLQSSGLYSLSSVVTVPSSSLGTKTYTCNVDHKPSNTKVDKRVESKYGPPCPPCPAPEFEGGPSVFLFPPKPKDTLMISRTPEVTCVVVDVSQEDPEVQFNWYVDGVEVHNAKTKPREEQFNSTYRVVSVLTVLHQDWLNGKEYKCKVSNKGLASSIEKTISKAKGQPREPQVCTLPPSQEEMTKNQVSLSCAVKGFYPSDIAVEWESNGQPENNYKTTPPVLDSDGSFFLVSKLTVDKSRWQEGNVFSCSVMHEALHNHYTQKSLSLSLGK
light 2: QAVVTQEPSLTVSPGGTVTLTCRSSTGAVTTSNYANWVQQKPGQAPRGLIGGTNKRAPWTPARFSGSLLGGKAALTITGAQAEDEAEYYCVLWYSNLWVFGGGTKLTVLGQPKAAPSVTLFPPSSEELQANKATLVCLISDFYPGAVTVAWKADSSPVKAGVETTTPSKQSNNKYAASSYLSLTPEQWKSHRSYSCQVTHEGSTVEKTVAPTECS
heavy 2: EVQLVESGGGLVQPGGSLRLSCAASGFTFNTYAMNWVRQAPGKGLEWVGRIRSKYNNYATYYADSVKDRFTISRDDSKNSLYLQMNSLKTEDTAVYYCVRHGNFGNSYVSWFAYWGQGTLVTVSSASTKGPSVFPLAPCSRSTSESTAALGCLVKDYFPEPVTVSWNSGALTSGVHTFPAVLQSSGLYSLSSVVTVPSSSLGTKTYTCNVDHKPSNTKVDKRVESKYGPPCPPCPAPEFEGGPSVFLFPPKPKDTLMISRTPEVTCVVVDVSQEDPEVQFNWYVDGVEVHNAKTKPREEQFNSTYRVVSVLTVLHQDWLNGKEYKCKVSNKGLASSIEKTISKAKGQPREPQVYTLPPCQEEMTKNQVSLWCLVKGFYPSDIAVEWESNGQPENNYKTTPPVLDSDGSFFLYSKLTVDKSRWQEGNVFSCSVMHEALHNHYTQKSLSLSLGK
notes: also called anti-CD20×CD3 κλ bispecific antibody
B3: CD20 × CD3 κλ005 (bispecific antibody, human IgG4 S228P, kappa, lambda)
light 1: not shown
heavy 1: EVQLLESGGGVVQPGGSLRLSCAASGFTFNDYAMHWVRQAPGKGLEWVSTISWNSGSIGYADSVKGRFTISRDNSKNTLYLQMNSLRAEDTAVYYCAKDIQYGNYYYGMDYWGQGTLVTVSSASTKGPSVFPLAPCSRSTSESTAALGCLVKDYFPEPVTVSWNSGALTSGVHTFPAVLQSSGLYSLSSVVTVPSSSLGTKTYTCNVDHKPSNTKVDKRVESKYGPPCPPCPAPEFEGGPSVFLFPPKPKDTLMISRTPEVTCVVVDVSQEDPEVQFNWYVDGVEVHNAKTKPREEQFNSTYRVVSVLTVLHQDWLNGKEYKCKVSNKGLASSIEKTISKAKGQPREPQVCTLPPSQEEMTKNQVSLSCAVKGFYPSDIAVEWESNGQPENNYKTTPPVLDSDGSFFLVSKLTVDKSRWQEGNVFSCSVMHEALHNHYTQKSLSLSLGK
light 2: QAVVTQEPSLTVSPGGTVTLTCRSSTGAVTTSNYANWVQEKPGQAPRGLIGGTNKRAPWTPARFSGSLLGGKAALTITGAQAEDEAEYYCVLWYSNLWVFGGGTKLTVLGQPKAAPSVTLFPPSSEELQANKATLVCLISDFYPGAVTVAWKADSSPVKAGVETTTPSKQSNNKYAASSYLSLTPEQWKSHRSYSCQVTHEGSTVEKTVAPTECS
heavy 2: EVQLVESGGGLVQPGGSLRLSCAASGFTFNTYAMNWVRKAPGKGLEWVGRIRSKYNNYATYYADSVKDRFTISRDDSKNSLYLQMNSLKTEDTAVYYCVRHGNFGNSYVSWFAYWGQGTLVTVSSASTKGPSVFPLAPCSRSTSESTAALGCLVKDYFPEPVTVSWNSGALTSGVHTFPAVLQSSGLYSLSSVVTVPSSSLGTKTYTCNVDHKPSNTKVDKRVESKYGPPCPPCPAPEFEGGPSVFLFPPKPKDTLMISRTPEVTCVVVDVSQEDPEVQFNWYVDGVEVHNAKTKPREEQFNSTYRVVSVLTVLHQDWLNGKEYKCKVSNKGLASSIEKTISKAKGQPREPQVYTLPPCQEEMTKNQVSLWCLVKGFYPSDIAVEWESNGQPENNYKTTPPVLDSDGSFFLYSKLTVDKSRWQEGNVFSCSVMHEALHNHYTQKSLSLSLGK
notes: Human IgG4 knob-into-hole Fc; charge variants only in the CD3 arm; also called anti-CD20×CD3 κλ bispecific antibody

Assays:
[1] = biological target: T4, human CD3 on T cells (Jurkat cells; human peripheral blood CD4+ and CD8+ T-cells) (human, UniProt P07766 23-207); test: flow cytometry on human peripheral blood CD8+ T-cells
T4 construct: whole, on cells; also called CD4T; CD4 + T
Procedure: (§1) Fresh human peripheral blood was taken and PBMC was isolated by Ficoll. Paque Plu (GE, 17-1440-03). PBMC was adjusted to 5×10⁵ cells/mL with 4% calf serum (Hyclone, SH30626.06), 100 μL/well was added to a 96-well U-plate, the supernatant was centrifuged off and 100 μL of gradient diluted antibody (with starting concentration of 1800 nM, 3-fold dilution, 10 gradients) was added to each well and incubated for 60 min at 4° C. 50 μL/well of Alexa Fluro647 labeled goat anti-human IgG Fc (1:300 dilution) was added to the secondary antibody, with ice bath for 20 min, and 50 μL/well PI added after washing once, incubated for 5 min, and flow cytometer (BD C6) was used for detection. The control antibody REGN5458 was synthesized and prepared according to US20200024356.

[2] = biological target: T1, human CD3εγ-Fc heterodimer; test: SPR (Biacore T200), antigen amine-coupled on CM5 chip, antibody as analyte, 1:1 model
Procedure: 10 μg/mL human or cynomolgus monkey BCMA or CD3εγ recombinant antigen was bound to a CM5 chip (GE healthcare) by amino conjugating, while the amount of antigen bound was controlled to approximately 200 RU. After baseline plateau, gradient diluted antibodies (7 gradients of 2-fold dilutions from 10 μg/mL) were flowed through the chip at a flow rate of 30 μL/min for a binding time of 350 seconds and a dissociation time of 600 seconds. Kinetic constants were fitted using Biacore T200 evaluation software with a 1:1 binding model.

[3] = biological target: T4, human CD3 on T cells (Jurkat cells; …); test: flow cytometry on human peripheral blood CD4+ T-cells
Procedure: as §1

[4] = biological target: T2, cynomolgus monkey CD20 on CHO stably …; test: flow cytometry on CHO-cynomolgus monkey CD20 stably transfected cells
Procedure: (§2) CHO-human CD20 and CHO-cynomolgus monkey CD20 stably transfected cells prepared in Example 1 in logarithmic growth phase were adjusted to 5×10⁵ cells/ml with 4% calf serum (Hyclone, SH30626.06), 100 μl/well cell suspension was added to 96-well U-plate, 300 g thereof was centrifuged for 5 min, the supernatant was discarded, and 100 μL of gradient diluted antibody (with starting concentration of 1800 nM, 3-fold dilution, 10 gradients) was added to each well and incubated at 4° C. for 60 min. 50 μL/well Alexa Fluro647 labeled goat anti-human IgG Fc (1:300 dilution) was added to the secondary antibody and incubated on ice for 20 min. After washing once, 50 μL/well propidium iodide (PI) solution (1:300) was added, incubated for 5 min, and performed with detection by flow cytometry.

[5] = biological target: T3, human CD20 on cells (CHO-human CD20 …); test: flow cytometry on CHO-human CD20 stably transfected cells
Procedure: as §2

Binder	EC50 [1] [nM]	Kd [2] [nM]	EC50 [3] [nM]	EC50 [4] [nM]	EC50 [5] [nM]
B1	67	32	79	–	–
B2	–	–	–	12	10
B3	–	–	–	14	9
